Reference: article PMC2660430, “Identification of Proteins Targeted by the Thioredoxin Superfamily in Plasmodium falciparum” (PLoS Pathogens, 2009)

Legend:
[1] = target: T1, PfSAHH (recombinant S-adenosyl-L-homocysteine hydrolase) (P. falciparum strain 3D7, UniProt P50250 1-479); experiment: SPR; BIAcore X; SAHH amine-coupled to CM5 chip, oxidized with 0.5 mM DTNB; analyte 10 µM in HBS buffer (10 mM HEPES, 150 mM NaCl, 3.4 mM EDTA, 0.005% Nonidet P-40, pH 7.4), 25°C, 10 µl/min; elution with 2 mM DTT; FC2-FC1; details: both partners purified
T1 construct: S-adenosyl-L-homocysteine hydrolase, P. falciparum strain 3D7, Swiss-Prot Q7K6A6, PlasmoDB PFE1050w; gene amplified from a gametocyte cDNA library with primers from the start codon (NcoI) to the last codon (XhoI); Amine-coupled to a CM5 chip and oxidized on the chip with 0.5 mM DTNB before each analyte; also called oxidized SAHH; source: E. coli BL 21 (pET28a), purified (Ni-NTA)
T1 sequence (P50250 whole entry): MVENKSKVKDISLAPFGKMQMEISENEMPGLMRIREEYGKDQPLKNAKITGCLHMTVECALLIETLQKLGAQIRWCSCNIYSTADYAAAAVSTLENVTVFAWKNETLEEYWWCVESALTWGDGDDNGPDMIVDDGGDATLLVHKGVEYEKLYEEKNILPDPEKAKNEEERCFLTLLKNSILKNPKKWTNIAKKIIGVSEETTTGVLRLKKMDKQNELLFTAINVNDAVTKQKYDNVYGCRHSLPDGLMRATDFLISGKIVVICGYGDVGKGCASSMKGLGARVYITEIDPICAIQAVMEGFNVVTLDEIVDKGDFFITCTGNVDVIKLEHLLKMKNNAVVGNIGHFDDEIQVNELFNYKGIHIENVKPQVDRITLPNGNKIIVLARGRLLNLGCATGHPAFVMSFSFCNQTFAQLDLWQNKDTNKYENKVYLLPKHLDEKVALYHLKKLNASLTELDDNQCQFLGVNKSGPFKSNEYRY

[2] = target: T2, PfOAT (recombinant ornithine aminotransferase) (P. falciparum strain 3D7, UniProt Q6LFH8 1-414); experiment: SPR; BIAcore X; OAT amine-coupled to CM5 chip, oxidized with 0.5 mM DTNB; analyte 10 µM in HBS buffer (10 mM HEPES, 150 mM NaCl, 3.4 mM EDTA, 0.005% Nonidet P-40, pH 7.4), 25°C, 10 µl/min; elution with 2 mM DTT; FC2-FC1; details: both partners purified
T2 construct: Ornithine aminotransferase, P. falciparum strain 3D7, Swiss-Prot Q6LFH8, PlasmoDB PFF0435w; gene amplified from a gametocyte cDNA library with primers from the start codon (NcoI) to the last codon (XhoI); Amine-coupled to a CM5 chip and oxidized on the chip with 0.5 mM DTNB before each analyte; source: E. coli BL 21 (pET28a), purified (Ni-NTA)
T2 sequence (looked up): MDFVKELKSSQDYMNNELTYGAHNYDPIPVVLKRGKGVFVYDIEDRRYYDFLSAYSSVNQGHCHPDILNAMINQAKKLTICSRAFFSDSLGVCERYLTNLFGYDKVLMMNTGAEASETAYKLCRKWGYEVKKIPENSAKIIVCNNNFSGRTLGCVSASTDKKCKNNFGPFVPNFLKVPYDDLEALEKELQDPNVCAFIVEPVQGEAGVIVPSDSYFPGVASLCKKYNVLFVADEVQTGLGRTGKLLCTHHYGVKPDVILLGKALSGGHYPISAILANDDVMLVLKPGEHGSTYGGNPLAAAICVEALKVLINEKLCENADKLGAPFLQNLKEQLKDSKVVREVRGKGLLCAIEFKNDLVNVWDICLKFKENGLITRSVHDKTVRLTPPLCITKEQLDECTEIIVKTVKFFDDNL

B1: Plrx (wild type plasmoredoxin, recombinant) (natural protein, P. falciparum, UniProt Q8I224 1-179, looked up)
chain: MACQVDNPPKTYPNDKTAEYEKYANYMNYLYYYQNNELKKIDSSYFKDKYLGLFFGASWCKYCVTFIDSLNIFKKNFPNVEIIYIPFDRTYQEYQSFLKNTNFYALPFDNYLYICKKYQIKNLPSFMLITPNNNILVKDAAQLIKTDEYINNLKSLIKNYIIHPKTFQFNNRFFDLFRN
notes: Plasmoredoxin (Plrx), P. falciparum, Swiss-Prot Q8I224, PlasmoDB PFC0166w; also called wild type Plrx; PfPlrx; source: E. coli M15 (pQE30), purified (Ni-NTA)
Question: Does B1 bind [1]?
Answer: binds

B2: PfTrx1^C33S (natural protein)
chain: MVKIVTSQAEFDSIISQNELVIVDFFAEWCGPSKRIAPFYEECSKTYTKMVFIKVDVDEVSEVTEKENITSMPTFKVYKNGSSVDTLLGANDSALKQLIEKYAA
notes: Thioredoxin 1 (PfTrx1), P. falciparum, PlasmoDB PF14_0545; Lacks the resolving cysteine; traps targets as a mixed disulfide through Cys 30; also called Trx^C33S; TrxC33S; source: E. coli M15 (pQE30), purified (Ni-NTA)
Question: What does the source list for B2?
Answer: binding result [1]: binds; binding result [2]: binds
